Laboratory results taken from the supplement of paper PMC10126150.
± gives the standard deviation of the averaged measurements.

Test system: ATP
Experiment: switch fluorescence ratio, 500 uM ATP over buffer (Cy3 cluster intensity, sum of 5 cycles each) (fold (ratio)); higher = stronger signal-on switching upon ATP binding; sequences stand for … in TCGTCGGCAGCGTCAGATGTGTATAAGAGACAGTTTTTTTTTTTTTTTTTTTTTTTTT…TC
Conditions: aptamer strand: ATP DNA aptamer (quencher-CACCTGGGGGAGTATTGCGGAGGAAGG + anchor), 100 nM annealed; ATP concentration: 500 uM
Procedure, shortened: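 Five buffer/ATP imaging cycles were run on Cy3-labelled switching-strand clusters on a modified Illumina MiSeq flow-cell, with NaOH stripping and re-annealing between cycles. In each cycle, clusters annealed to 100 nM quencher-labelled ATP aptamer were imaged in selection buffer, then after 15 min with 500 uM ATP at 22 °C. Per cluster, the fluorescence ratio is summed target-cycle over summed buffer-cycle Cy3 intensity, averaged per switch-domain sequence. Only clusters within 100-1000 RFU were kept.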
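Also: ATP exposure 15 min at 22 °C before imaging.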

TAGGGATCCC
switch fluorescence ratio: 1.04 ± 0.028

TAGGGCAAGT
switch fluorescence ratio: 1.01 ± 0.016

TAGGGCACGG
switch fluorescence ratio: 1.02 ± 0.035

TAGGGCATTT
switch fluorescence ratio: 1.03 ± 0.056

TAGGGCCACG
switch fluorescence ratio: 1.01 ± 0.018

TAGGGCGGGG
switch fluorescence ratio: 0.988 ± 0.025

TAGGGCTTAA
switch fluorescence ratio: 0.993 ± 0.042

TAGGGGAAAT
switch fluorescence ratio: 0.994 ± 0.024

TAGGGGAACC
switch fluorescence ratio: 0.9693 ± 0.0092

TAGGGGACGT
switch fluorescence ratio: 0.992 ± 0.063

TAGGGGAGGC
switch fluorescence ratio: 0.984 ± 0.016

TAGGGGATAG
switch fluorescence ratio: 1.02 ± 0.032

TAGGGGCGGC
switch fluorescence ratio: 1.01 ± 0.056

TAGGGGCGGG
switch fluorescence ratio: 0.971 ± 0.025

TAGGGGGAAG
switch fluorescence ratio: 0.9792 ± 0.0033

TAGGGGGACG
switch fluorescence ratio: 1.04 ± 0.068

TAGGGGGATT
switch fluorescence ratio: 1.014 ± 0.0089

TAGGGGGCGT
switch fluorescence ratio: 0.987 ± 0.0032

TAGGGGGGAC
switch fluorescence ratio: 1.19 ± 0.34

TAGGGGGTCT
switch fluorescence ratio: 1.21 ± 0.47

TAGGGGTACT
switch fluorescence ratio: 1.41 ± 0.61

TAGGGGTATG
switch fluorescence ratio: 1.06 ± 0.096

TAGGGGTCTC
switch fluorescence ratio: 1.07 ± 0.038

TAGGGGTGGG
switch fluorescence ratio: 1.0453 ± 0.00085

TAGGGGTGTA
switch fluorescence ratio: 1 ± 0.04

TAGGGGTTGT
switch fluorescence ratio: 1.02 ± 0.028

TAGGGTAAGT
switch fluorescence ratio: 0.9905 ± 0.0089

TAGGGTATAT
switch fluorescence ratio: 0.986 ± 0.015

TAGGGTCGGT
switch fluorescence ratio: 1 ± 0.041

TAGGGTGAGT
switch fluorescence ratio: 1.02 ± 0.035

TAGGGTGTTG
switch fluorescence ratio: 1.01 ± 0.021

TAGGGTTTGT
switch fluorescence ratio: 0.989 ± 0.031

TAGGTACCAG
switch fluorescence ratio: 0.984 ± 0.025

TAGGTAGCTT
switch fluorescence ratio: 1.02 ± 0.021

TAGGTAGGGA
switch fluorescence ratio: 0.993 ± 0.018

TAGGTATGTG
switch fluorescence ratio: 1.03 ± 0.049

TAGGTCAGAA
switch fluorescence ratio: 0.989 ± 0.025

TAGGTCATTG
switch fluorescence ratio: 0.995 ± 0.025

TAGGTCGGTG
switch fluorescence ratio: 0.993 ± 0.011

TAGGTCTAGG
switch fluorescence ratio: 1 ± 0.023

TAGGTGCGGT
switch fluorescence ratio: 0.989 ± 0.015

TAGGTGCTTT
switch fluorescence ratio: 1.079 ± 0.0059

TAGGTGGCGG
switch fluorescence ratio: 0.9906 ± 0.0071

TAGGTGGTTT
switch fluorescence ratio: 0.989 ± 0.026

TAGGTGTAGG
switch fluorescence ratio: 1.01 ± 0.028

TAGGTGTGTG
switch fluorescence ratio: 0.984 ± 0.024

TAGGTTAAAA
switch fluorescence ratio: 0.9786 ± 0.0041

TAGGTTAAGG
switch fluorescence ratio: 1 ± 0.034

TAGGTTACCC
switch fluorescence ratio: 1.04 ± 0.046

TAGGTTATTA
switch fluorescence ratio: 0.9988 ± 0.0097

TAGGTTGCTT
switch fluorescence ratio: 1.02 ± 0.021

TAGGTTGGGT
switch fluorescence ratio: 0.992 ± 0.0089

TAGTAAAAAC
switch fluorescence ratio: 0.9938 ± 0.0061

TAGTAACATA
switch fluorescence ratio: 1.006 ± 0.0036

TAGTAATATT
switch fluorescence ratio: 1.11 ± 0.12

TAGTAATGTT
switch fluorescence ratio: 0.982 ± 0.025

TAGTAGACTG
switch fluorescence ratio: 1.01 ± 0.05

TAGTAGAGT
switch fluorescence ratio: 0.9637 ± 0.0076

TAGTAGATTC
switch fluorescence ratio: 1.005 ± 0.0054

TAGTAGCTGT
switch fluorescence ratio: 1.04 ± 0.089

TAGTAGGGTT
switch fluorescence ratio: 0.986 ± 0.021

TAGTAGGTAC
switch fluorescence ratio: 1.04 ± 0.025

TAGTAGTCGG
switch fluorescence ratio: 0.963 ± 0.036

TAGTAGTTAT
switch fluorescence ratio: 0.9858 ± 0.0052

TAGTATTCTG
switch fluorescence ratio: 0.986 ± 0.021

TAGTATTTGC
switch fluorescence ratio: 1.14 ± 0.13

TAGTCAGTCG
switch fluorescence ratio: 1.08 ± 0.11

TAGTCATTTG
switch fluorescence ratio: 0.962 ± 0.0097

TAGTCCGTAA
switch fluorescence ratio: 2.06 ± 0.035

TAGTCGGGTT
switch fluorescence ratio: 0.9613 ± 0.0059

TAGTCGTTTC
switch fluorescence ratio: 1.02 ± 0.035

TAGTCTGGT
switch fluorescence ratio: 0.999 ± 0.016

TAGTCTTTTT
switch fluorescence ratio: 1.03 ± 0.027

TAGTGACACG
switch fluorescence ratio: 1.03 ± 0.045

TAGTGAGGGA
switch fluorescence ratio: 0.992 ± 0.013

TAGTGCCGGT
switch fluorescence ratio: 0.993 ± 0.016

TAGTGCGTCG
switch fluorescence ratio: 0.942 ± 0.063

TAGTGCTTGG
switch fluorescence ratio: 0.9827 ± 0.0087

TAGTGGGTTT
switch fluorescence ratio: 1.01 ± 0.021

TAGTGGTTAG
switch fluorescence ratio: 0.991 ± 0.025

TAGTGTAGGT
switch fluorescence ratio: 1.03 ± 0.02

TAGTGTATTA
switch fluorescence ratio: 1.01 ± 0.018

TAGTGTCGGA
switch fluorescence ratio: 0.9914 ± 0.0035

TAGTTAATAT
switch fluorescence ratio: 1 ± 0.019

TAGTTAGTTT
switch fluorescence ratio: 1.02 ± 0.029

TAGTTCATGG
switch fluorescence ratio: 0.991 ± 0.019

TAGTTCGCTT
switch fluorescence ratio: 1.003 ± 0.0067

TAGTTGAATT
switch fluorescence ratio: 0.998 ± 0.014

TAGTTGACCG
switch fluorescence ratio: 1.12 ± 0.11

TAGTTGACTG
switch fluorescence ratio: 1.04 ± 0.072

TAGTTGATTC
switch fluorescence ratio: 1.01 ± 0.067

TAGTTGCGGC
switch fluorescence ratio: 1.01 ± 0.041

TAGTTGGGGG
switch fluorescence ratio: 1 ± 0.028

TAGTTGGTAC
switch fluorescence ratio: 0.9925 ± 0.0083

TAGTTGGTCG
switch fluorescence ratio: 1.02 ± 0.049

TAGTTGGTTG
switch fluorescence ratio: 0.974 ± 0.027

TAGTTGTTGC
switch fluorescence ratio: 0.977 ± 0.021

TAGTTTATTT
switch fluorescence ratio: 1 ± 0.015

TAGTTTCCCA
switch fluorescence ratio: 0.971 ± 0.024

TAGTTTCGAT
switch fluorescence ratio: 0.977 ± 0.019

TAGTTTGATG
switch fluorescence ratio: 0.986 ± 0.017

TAGTTTTATG
switch fluorescence ratio: 0.959 ± 0.015

TAGTTTTTTA
switch fluorescence ratio: 1.02 ± 0.015

TAGTTTTTTT
switch fluorescence ratio: 0.986 ± 0.022

TATAAAAAAA
switch fluorescence ratio: 1.02 ± 0.051

TATAAAACCC
switch fluorescence ratio: 1.1 ± 0.045

TATAAAAGGA
switch fluorescence ratio: 1 ± 0.019

TATAAAGGG
switch fluorescence ratio: 0.956 ± 0.022

TATAAAGGTG
switch fluorescence ratio: 1.11 ± 0.14

TATAACACTT
switch fluorescence ratio: 1.05 ± 0.024

TATAACGGAG
switch fluorescence ratio: 1.01 ± 0.014

TATAACGTTA
switch fluorescence ratio: 0.993 ± 0.015

TATAAGAGAA
switch fluorescence ratio: 0.972 ± 0.031

TATAAGATTA
switch fluorescence ratio: 1.015 ± 0.0027

TATAAGCTAG
switch fluorescence ratio: 1.03 ± 0.017

TATAAGGAGG
switch fluorescence ratio: 0.9935 ± 0.0033

TATAATACGG
switch fluorescence ratio: 1.02 ± 0.02

TATAATAGAA
switch fluorescence ratio: 0.983 ± 0.027

TATAATCCAG
switch fluorescence ratio: 0.984 ± 0.024

TATAATCGTG
switch fluorescence ratio: 0.988 ± 0.021

TATAATTGCG
switch fluorescence ratio: 0.977 ± 0.036

TATAATTTCG
switch fluorescence ratio: 1.003 ± 0.0024

TATACAAATT
switch fluorescence ratio: 0.989 ± 0.043

TATACAGCGA
switch fluorescence ratio: 1.0822 ± 0.00025

TATACATTCA
switch fluorescence ratio: 1.07 ± 0.019

TATACATTGG
switch fluorescence ratio: 0.98862 ± 5.5e-05

TATACCGGTA
switch fluorescence ratio: 1.022 ± 0.0067

TATACGAAAT
switch fluorescence ratio: 1.49 ± 0.58

TATACGATCT
switch fluorescence ratio: 0.999 ± 0.03

TATACGGCAC
switch fluorescence ratio: 2.04 ± 0.14

TATACGGCAT
switch fluorescence ratio: 1.119 ± 0.0049

TATACGGTTT
switch fluorescence ratio: 1.03 ± 0.083

TATACTCAGG
switch fluorescence ratio: 1.05 ± 0.029

TATAGACTTT
switch fluorescence ratio: 1.02 ± 0.019

TATAGATGAC
switch fluorescence ratio: 0.989 ± 0.017

TATAGATGTG
switch fluorescence ratio: 1.013 ± 0.0024

TATAGATTTT
switch fluorescence ratio: 1.003 ± 0.0078

TATAGCAGTT
switch fluorescence ratio: 1.01 ± 0.013

TATAGCTTTT
switch fluorescence ratio: 0.9869 ± 0.0031

TATAGGCTCA
switch fluorescence ratio: 0.976 ± 0.033

TATAGGCTTT
switch fluorescence ratio: 0.97 ± 0.024

TATAGGGCC
switch fluorescence ratio: 1 ± 0.017

TATAGGTATG
switch fluorescence ratio: 1.01 ± 0.012

TATAGGTCGA
switch fluorescence ratio: 1.03 ± 0.011

TATAGGTGAG
switch fluorescence ratio: 1.01 ± 0.03

TATAGTATTT
switch fluorescence ratio: 0.984 ± 0.015

TATAGTGCTC
switch fluorescence ratio: 0.986 ± 0.054

TATAGTGTAA
switch fluorescence ratio: 1.01 ± 0.048

TATAGTTGTG
switch fluorescence ratio: 0.965 ± 0.025

TATATAAGAA
switch fluorescence ratio: 1.01 ± 0.033

TATATATCAA
switch fluorescence ratio: 1.003 ± 0.005

TATATCGGAC
switch fluorescence ratio: 1 ± 0.014

TATATCTCCG
switch fluorescence ratio: 1.12 ± 0.015

TATATGAGTT
switch fluorescence ratio: 0.963 ± 0.0099

TATATGGCAT
switch fluorescence ratio: 1.05 ± 0.085

TATATGGCGG
switch fluorescence ratio: 0.9719 ± 0.0074

TATATGGGGT
switch fluorescence ratio: 1 ± 0.042
